Source: PMC4110284

Columns and labels:
[1] = target: mutant IgG4 with Pro222 (human); assay: AUC; sedimentation velocity, 40,000 rpm, SEDFIT c(s) analysis with integration of the monomer and dimer peaks; IgG4(Ser222) 0.5-8 mg/ml in PBS-50, PBS-137 and PBS-250 in H2O at 20 °C and in PBS-137 in 2H2O at 6, 20 and 30 °C; IgG4(Pro222) 0.5-2.5 mg/ml in PBS-137 in H2O at 20 °C; pH 7.4; dimer to monomers
[2] = target: wild-type human-mouse chimera IgG4 B72.3 with Ser222 (human); assay: as above

Molecule	percent dimer [1] [%]	stoichiometry N [1]	Kd [2] [µM]	percent dimer [2] [%]	stoichiometry N [2]
mutant IgG4 with Pro222 (antibody)	2 to 3	2			
wild-type human-mouse chimera IgG4 B72.3 with Ser222 (antibody, V domains shown) VH: QVQLQQSDAELVKPGASVKISCKASGYTFTDHAIHWAKQKPEQGLEWIGYISPGNDDIKYNEKFKGKATLTADKSSSTAYMQLNSLTSEDSAVYFCKRSYYGHWGQGTTLTVSS VL: DIQMTQSPASLSVSVGETVTITCRASENIYSNLAWYQQKQGKSPQLLVYAATNLADGVPSRFSGSGSGTQYSLKINSLQSEDFGSYYCQHFWGTPYTFGGGTRLEIK			600 to 3000	1 to 3	2
